Results reported in patent publication US20200071417A1 (MARENGO THERAPEUTICS, published 2020).

Tests used:
mouse CSF1R = biological target: T1, mouse CSF1R (mouse, UniProt P09581 20-977); assay: flow cytometry on transiently transfected ExpiCHO cells expressing mouse CSF1R only
T1 construct: whole, on cells; the mouse protein was used in the assays; also called mCSF1R
T1 sequence (looked up): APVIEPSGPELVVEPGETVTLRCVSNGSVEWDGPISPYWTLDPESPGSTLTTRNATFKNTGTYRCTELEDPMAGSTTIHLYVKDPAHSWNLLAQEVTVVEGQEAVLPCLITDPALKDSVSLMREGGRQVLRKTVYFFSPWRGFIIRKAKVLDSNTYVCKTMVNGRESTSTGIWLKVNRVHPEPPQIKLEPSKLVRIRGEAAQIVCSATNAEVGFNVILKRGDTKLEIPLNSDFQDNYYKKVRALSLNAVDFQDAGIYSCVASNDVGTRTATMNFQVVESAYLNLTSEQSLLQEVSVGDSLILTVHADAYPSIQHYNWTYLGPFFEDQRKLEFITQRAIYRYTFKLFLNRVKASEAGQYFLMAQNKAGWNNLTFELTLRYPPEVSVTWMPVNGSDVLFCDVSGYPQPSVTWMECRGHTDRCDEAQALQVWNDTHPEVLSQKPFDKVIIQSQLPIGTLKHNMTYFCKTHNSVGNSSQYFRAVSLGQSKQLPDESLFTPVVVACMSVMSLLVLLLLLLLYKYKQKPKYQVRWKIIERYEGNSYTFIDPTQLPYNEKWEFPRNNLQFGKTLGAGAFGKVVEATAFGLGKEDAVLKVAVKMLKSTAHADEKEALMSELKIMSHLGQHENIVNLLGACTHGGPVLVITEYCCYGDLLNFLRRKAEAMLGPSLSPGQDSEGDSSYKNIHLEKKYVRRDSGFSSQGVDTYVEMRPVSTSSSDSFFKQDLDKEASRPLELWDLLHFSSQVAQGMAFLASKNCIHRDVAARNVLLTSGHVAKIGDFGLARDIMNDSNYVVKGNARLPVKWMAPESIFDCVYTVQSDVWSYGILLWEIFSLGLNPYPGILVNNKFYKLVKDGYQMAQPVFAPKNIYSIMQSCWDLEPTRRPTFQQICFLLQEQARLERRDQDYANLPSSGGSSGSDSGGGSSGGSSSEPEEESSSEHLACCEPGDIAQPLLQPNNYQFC
Protocol: (§1) ExpiCHO cells were transiently transfected with mouse CCR2, mouse CSF1R, or both mouse CCR2 and CSF1R, according to the manufacturer's instructions. In brief, the transfections were performed with ExpiCHO cells at a cell density of 5.6-6.3×10⁶ cells/mL and at least 95% viability. For each transfection, 25 μg of DNA was diluted with 1 mL of OptiPro SFM (Gibco 12309050) and filtered using spin-X centrifuge tube filters (Corning 8160). A solution of 920 μL of OptiPro and 80 μL of expifectamine was added to the filtered DNA, incubated for 1 minute at room temperature, and then added to the cells. On day 1 of the transfection, the cells were enhanced using 150 μL of ExpiCHO enhancer.
(§2) On day 2 of the transfection, the cells were washed with PBS containing 1% BSA (Sigma) and used to set 96-well V-bottom plates (Biotix AP-0350-9CVS) with 100,000 cells/well. UniTI-01 was added to the cells in serial dilutions and incubated for 1 hour at 4° C. The plates were washed twice with PBS containing 1% BSA. […] The plates were read on a CytoFLEX S (Beckman Coulter). Data were calculated as the median fluorescence intensity of the PE-positive population vs. the median fluorescence intensity of the PE-negative population. The data was normalized for the percent of total median fluorescence intensity. […]

mouse CCR2 = biological target: T2, mouse CCR2 (mouse, UniProt P51683 1-373); assay: flow cytometry on transiently transfected ExpiCHO cells expressing mouse CCR2 only
T2 construct: whole, on cells; the mouse protein was used in the assays; also called mCCR2
Protocol: as §1, §2

[1] = biological target: T3, mouse CCR2 and mouse CSF1R co-expressed on the same ExpiCHO cells (mouse, UniProt P51683 1-373; P09581 20-977); assay: flow cytometry on transiently transfected ExpiCHO cells expressing both mouse CCR2 and mouse CSF1R
T3 construct: whole, on cells; also called both mCCR2 and mCSF1R; CCR2 and CSF1R double positive cells
Protocol: as §1, §2

T3 sequence (P51683 whole entry, one chain of several): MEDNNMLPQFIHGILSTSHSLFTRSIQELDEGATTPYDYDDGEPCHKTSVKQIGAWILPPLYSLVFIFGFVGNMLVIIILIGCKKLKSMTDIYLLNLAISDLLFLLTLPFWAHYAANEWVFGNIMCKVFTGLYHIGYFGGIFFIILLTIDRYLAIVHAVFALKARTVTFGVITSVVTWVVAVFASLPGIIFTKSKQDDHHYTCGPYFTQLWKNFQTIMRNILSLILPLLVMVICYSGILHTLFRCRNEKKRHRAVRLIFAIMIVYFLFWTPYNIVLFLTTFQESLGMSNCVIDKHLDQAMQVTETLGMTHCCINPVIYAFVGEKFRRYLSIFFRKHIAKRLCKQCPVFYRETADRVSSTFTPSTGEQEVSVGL
T2 sequence (P51683 whole entry): as the sequence (P51683 whole entry, one chain of several) above

B1: UniTI-01 (multispecific molecule #1), anti-CCR2/anti-CSF1R bispecific antibody (bispecific antibody)
heavy 1: QVQLQESGPGLVQPSQTLSLTCTVSGFSLTDFSVHWVRQPPGKGLEWMGRIRSEGNTDYNSALKSRLSISRDTSKSQVFLKMNSLQTEDTAIYFCTRGDILGFGYWGQGVMVTVSSAQTTAPSVYPLAPGCGDTTSSTVTLGCLVKGYFPEPVTVTWNSGALSSDVHTFPAVLQSGLYTLTSSVTSSTWPSQTVTCNVAHPASSTKVDKKVERRTIKPCPPCKCPAPNLLGGPSVFIFPPKIKDVLMISLSPIVTCVVVDVSEDDPDVQISWFVNNVEVHTAQTQTHREDYNSTLRVVSALPIQHQDWMSGKEFKCKVNNKDLPAPIERTISKPKGSVRAPQVYVLPPCEEEMTKKQVTLWCMVTDFMPEDIYVEWTNNGKTELNYKNTEPVLDSDGSYFMYSKLRVEKKNWVERNSYSCSVVHEGLHNHHTTKSFSRTPGK
light 1: DIVMTQSPLSVSVTPGESASISCRSSKSLLHFKGITFVYWYLQKPGQSPQLLIFRMSSLASGVPDRFSGSGSETDFTLKISRVEAEDVGTYYCGQLLENPYTFGAGTKLELKRADAAPTVSIFPPSMEQLTSGGATVVCFVNNFYPRDISVKWKIDGSEQRDGVLDSVTDQDSKDSTYSMSSTLSLTKVEYERHNLYTCEVVHKTSSSPVVKSFNRNEC
heavy 2: QVQLQQSGAELVKPGSSVKISCKASGYTFTSNFMHWIKQQPGNGLEWIGWIYPGDGDTEYNQKFNGKATLTADKSSSTAYMQLSSLTSEDSAVYFCAVNYGGYVLDAWGQGASVTVSSAETTAPSVYPLAPGTALKSNSMVTLGCLVKGYFPEPVTVTWNSGALSSGVHTFPAVLQSGLYTLTSSVTVPSSTWSSQAVTCNVAHPASSTKVDKKIVPRECNTIKPCPPCKCPAPNLLGGPSVFIFPPKIKDVLMISLSPIVTCVVVDVSEDDPDVQISWFVNNVEVHTAQTQTHREDYNSTLRVVSALPIQHQDWMSGKEFKCKVNNKDLPAPIERTISKPKGSVRAPQVCVLPPPEEEMTKKQVTLSCAVTDFMPEDIYVEWTNNGKTELNYKNTEPVLDSDGSYFMVSKLRVEKKNWVERNSYSCSVVHEGLHNHHTTKSFSRTPGK
light 2: EIVLTQSPTTMAASPGEKVTITCRASSSTNYMSWYQQKSGASPKPWIYETSKLASGVPDRFSGSGSGTSYSFTISSMETEDAATYYCHQWSSTPLTFGSGTKLEIKRADAAPTVSIFPPSMEQLTSGGATVVCFVNNFYPRDISVKWKIDGSEQRDGVLDSVTDQDSKDSTYSMSSTLSLTKVEYERHNLYTCEVVHKTSSSPVVKSFNRNEC
notes: Knob-in-hole heterodimer with one anti-CCR2 arm and one anti-mCSF1R arm
**Q.** Which results are given for B1?
**A.** EC50 (mouse CSF1R): 1 nM; EC50 (mouse CCR2): 15 nM; EC50 [1]: 0.4 nM
